Residue numbers refer to the chain shown, from its start. Numbers in names are those of the source. Each block holds one binder with its values, some of them ahead of it.
Legend:
human MSLN antigen [1] = target: T1, human MSLN antigen (human, UniProt Q13421 296-580, limits assumed); test: Octet BLI; bsAb on anti-human Fc sensor, human MSLN as analyte, one concentration; parameters: Response: unit not given here
T1 construct: Soluble antigen for BLI; also called Mesothelin; MESO
From the text: (§1) Variants of MESO-C were engineered by introducing point substitutions into the variable heavy region (VH) and the variable light region (VL) to generate 11 VH variants and 16 VL variants (sequences for which are depicted in FIG. 18 as H1.1-H1.13 and in FIG. 19 as L1.1-L1.18). An additional 4 VL variants were generated by combining useful point substitutions (sequences for which are depicted in FIG. 19 as L1.19-L1.22). WT and variant variable heavy regions were paired with WT and variant variable light regions to generate variant variable regions (Fvs) which were produced in the context of anti-MSLN×anti-CD3 bispecific antibodies. The bispecific antibodies were screened for MSLN binding affinity using Octet®, a BioLayer Interferometry (BLI)-based method. Experimental steps for Octet® generally include the following: Immobilization (capture of ligand to a biosensor); Association (dipping of ligand-coated biosensors into wells containing the analyte); and Dissociation (returning of biosensors to well containing buffer). In an initial screening, anti-human Fc sensors were used to capture the bispecific mAbs and dipped into human MSLN antigen (one concentration to screen large library). The resulting dissociation constant of illustrative variants (KD), association rate (kₐ), dissociation rate (kd), as well as sensorgram response are depicted in FIG. 20. In further screening of favorite variants identified in the initial screen (and combination variants), bispecific mAbs were dipped into multiple concentrations of human MSLN antigen, data for which are depicted in FIG. 21 (from various screens).

cyno MSLN = target: T2, cyno MSLN (Macaca fascicularis (cynomolgus)); test: Octet BLI; bsAb on anti-human Fc sensor, cyno MSLN as analyte, one concentration
T2 construct: soluble antigen for Octet; also called cynomolgus MSLN

human MSLN antigen [2] = target: T1, human MSLN antigen; test: Octet BLI; bsAb on anti-human Fc sensor, human MSLN as analyte, several concentrations
From the text: as §1

T1 sequence (Q13421 other isoform, or with tags, fused parts or gaps limits assumed): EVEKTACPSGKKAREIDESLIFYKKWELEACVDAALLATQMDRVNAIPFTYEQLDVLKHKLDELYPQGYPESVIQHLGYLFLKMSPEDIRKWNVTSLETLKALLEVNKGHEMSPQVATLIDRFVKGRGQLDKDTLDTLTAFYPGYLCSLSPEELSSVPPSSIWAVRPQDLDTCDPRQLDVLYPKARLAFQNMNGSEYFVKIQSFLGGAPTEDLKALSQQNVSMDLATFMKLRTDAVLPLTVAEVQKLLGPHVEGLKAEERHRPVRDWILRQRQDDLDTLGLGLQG

Kd (human MSLN antigen [1]): 0.469 nM
Response (human MSLN antigen [1]): 1.18
koff (human MSLN antigen [1]): 0.000199 s⁻¹
kon (human MSLN antigen [1]): 425000 M⁻¹ s⁻¹
Kd (cyno MSLN): 0.395 nM
Response (cyno MSLN): 1.07
koff (cyno MSLN): 0.000157 s⁻¹
kon (cyno MSLN): 399000 M⁻¹ s⁻¹
B3: XENP32556 (bispecific antibody)
Fab-Fc heavy chain (anti-MSLN VH): QVQLVQSGAEVKKPGASVKVSCKASGYTFTSYWMHWVRQAPGQGLEWMGMIHPNSDNTIYYEKFQGRVTMTVDKSISTAYMELSRLRSDDTAVYYCARIITPVVPKFDYWGQGTLVTVSSASTKGPSVFPLAPSSKSTSGGTAALGCLVKDYFPEPVTVSWNSGALTSGVHTFPAVLQSSGLYSLSSVVTVPSSSLGTQTYICNVNHKPSDTKVDKKVEPKSCDKTHTCPPCPAPPVAGPSVFLFPPKPKDTLMISRTPEVTCVVVDVKHEDPEVKFNWYVDGVEVHNAKTKPREEEYNSTYRVVSVLTVLHQDWLNGKEYKCKVSNKALPAPIEKTISKAKGQPREPQVYTLPPSREEMTKNQVSLTCDVSGFYPSDIAVEWESDGQPENNYKTTPPVLDSDGSFFLYSKLTVDKSRWEQGDVFSCSVMHEALHNHYTQKSLSLSPGK
scFv-Fc heavy chain (anti-CD3 H1.30_L1.47): not shown
light chain (anti-MSLN VL): DIVMTQSPDSLAVSLGERATINCKASHDVGTSVAWYQQKPGQSPKLLIYWASTRHTGVPDRFTGSGSGTDFTLTISSLQAEDVAVYFCQQYSSYPLTFGAGTKLEIKRTVAAPSVFIFPPSDEQLKSGTASVVCLLNNFYPREAKVQWKVDNALQSGNSQESVTEQDSKDSTYSLSSTLTLSKADYEKHKVYACEVTHQGLSSPVTKSFNRGEC
notes: 1+1 Fab-scFv-Fc bsAb; VH I94R, VL WT (Kabat); also called MESO-C H1.7_L1

Kd (human MSLN antigen [1]): 0.601 nM
Response (human MSLN antigen [1]): 1.02
koff (human MSLN antigen [1]): 0.000314 s⁻¹
kon (human MSLN antigen [1]): 522000 M⁻¹ s⁻¹
Kd (cyno MSLN): 0.254 nM
Response (cyno MSLN): 0.891
koff (cyno MSLN): 0.000146 s⁻¹
kon (cyno MSLN): 576000 M⁻¹ s⁻¹
B5: XENP32550 (bispecific antibody)
Fab-Fc heavy chain (anti-MSLN VH): B3 Fab-Fc heavy chain (anti-MSLN VH) with S31G, R98I
scFv-Fc heavy chain (anti-CD3 H1.30_L1.47): not shown
light chain (anti-MSLN VL): B3 light chain (anti-MSLN VL)
notes: 1+1 Fab-scFv-Fc bsAb; VH S31G, VL WT (Kabat); also called MESO-C H1.1_L1

Kd (human MSLN antigen [1]): 0.483 nM
Response (human MSLN antigen [1]): 1.13
koff (human MSLN antigen [1]): 0.000268 s⁻¹
kon (human MSLN antigen [1]): 555000 M⁻¹ s⁻¹
Kd (cyno MSLN): 0.414 nM
Response (cyno MSLN): 1.03
koff (cyno MSLN): 0.00023 s⁻¹
kon (cyno MSLN): 555000 M⁻¹ s⁻¹
B8: XENP32554 (bispecific antibody)
Fab-Fc heavy chain (anti-MSLN VH): B3 Fab-Fc heavy chain (anti-MSLN VH) with N54Q, R98I
scFv-Fc heavy chain (anti-CD3 H1.30_L1.47): not shown
light chain (anti-MSLN VL): B3 light chain (anti-MSLN VL)
notes: 1+1 Fab-scFv-Fc bsAb; VH N53Q, VL WT (Kabat); also called MESO-C H1.5_L1

Kd (human MSLN antigen [2]): 16.2 nM
Response (human MSLN antigen [2]): 0.169
koff (human MSLN antigen [2]): 0.0103 s⁻¹
kon (human MSLN antigen [2]): 635000 M⁻¹ s⁻¹
B9: XENP32938 (bispecific antibody)
heavy: B3 Fab-Fc heavy chain (anti-MSLN VH) with E62Y, R98I
scFv-Fc: not shown
light: B3 light chain (anti-MSLN VL) with S92Y
notes: VH E61Y, VL S92Y as printed; also called MESO-C H1.13_L1.9; copies: 1 + 1 + 1

Kd (human MSLN antigen [1]): 0.795 nM
Response (human MSLN antigen [1]): 1.17
koff (human MSLN antigen [1]): 0.000198 s⁻¹
kon (human MSLN antigen [1]): 249000 M⁻¹ s⁻¹
Kd (cyno MSLN): 0.7 nM
Response (cyno MSLN): 1.11
koff (cyno MSLN): 0.000166 s⁻¹
kon (cyno MSLN): 238000 M⁻¹ s⁻¹
B10: XENP32558 (bispecific antibody)
Fab-Fc heavy chain (anti-MSLN VH): B3 Fab-Fc heavy chain (anti-MSLN VH) with R98I, K106R
scFv-Fc heavy chain (anti-CD3 H1.30_L1.47): not shown
light chain (anti-MSLN VL): B3 light chain (anti-MSLN VL)
notes: 1+1 Fab-scFv-Fc bsAb; VH K100bR, VL WT (Kabat); also called MESO-C H1.9_L1

The remaining lines, values behind:

B1: XENP31701 (bispecific antibody)
heavy: B3 Fab-Fc heavy chain (anti-MSLN VH) with R98I
scFv-Fc: not shown
light: B3 light chain (anti-MSLN VL)
notes: VH WT, VL WT; also called MESO-C H1_L1; copies: 1 + 1 + 1
Kd (human MSLN antigen [1]): 0.0805 nM
Response (human MSLN antigen [1]): 0.86
koff (human MSLN antigen [1]): 4.69e-05 s⁻¹
kon (human MSLN antigen [1]): 583000 M⁻¹ s⁻¹
Kd (cyno MSLN): 0.0938 nM
Response (cyno MSLN): 0.737
koff (cyno MSLN): 5.74e-05 s⁻¹
kon (cyno MSLN): 612000 M⁻¹ s⁻¹

B2: XENP32568 (bispecific antibody)
Fab-Fc heavy chain (anti-MSLN VH): B3 Fab-Fc heavy chain (anti-MSLN VH) with R98I
scFv-Fc heavy chain (anti-CD3 H1.30_L1.47): not shown
light chain (anti-MSLN VL): B3 light chain (anti-MSLN VL) with Y94T
notes: 1+1 Fab-scFv-Fc bsAb; VH WT, VL Y94T (Kabat); also called MESO-C H1_L1.10
Response (human MSLN antigen [1]): 0.107
Response (cyno MSLN): 0.0728

B4: XENP32566 (bispecific antibody)
Fab-Fc heavy chain (anti-MSLN VH): B3 Fab-Fc heavy chain (anti-MSLN VH) with R98I
scFv-Fc heavy chain (anti-CD3 H1.30_L1.47): not shown
light chain (anti-MSLN VL): B3 light chain (anti-MSLN VL) with T56S
notes: 1+1 Fab-scFv-Fc bsAb; VH WT, VL T56S (Kabat); also called MESO-C H1_L1.8
Kd (human MSLN antigen [1]): 0.18 nM
Response (human MSLN antigen [1]): 1.05
koff (human MSLN antigen [1]): 0.000113 s⁻¹
kon (human MSLN antigen [1]): 627000 M⁻¹ s⁻¹
Kd (cyno MSLN): 0.163 nM
Response (cyno MSLN): 0.941
koff (cyno MSLN): 0.0001 s⁻¹
kon (cyno MSLN): 616000 M⁻¹ s⁻¹

B6: XENP32553 (bispecific antibody)
Fab-Fc heavy chain (anti-MSLN VH): B3 Fab-Fc heavy chain (anti-MSLN VH) with H52N, R98I
scFv-Fc heavy chain (anti-CD3 H1.30_L1.47): not shown
light chain (anti-MSLN VL): B3 light chain (anti-MSLN VL)
notes: 1+1 Fab-scFv-Fc bsAb; VH H52N, VL WT (Kabat); also called MESO-C H1.4_L1
Kd (human MSLN antigen [1]): 0.687 nM
Response (human MSLN antigen [1]): 1.16
koff (human MSLN antigen [1]): 0.00037 s⁻¹
kon (human MSLN antigen [1]): 539000 M⁻¹ s⁻¹
Kd (cyno MSLN): 0.585 nM
Response (cyno MSLN): 1.06
koff (cyno MSLN): 0.000337 s⁻¹
kon (cyno MSLN): 575000 M⁻¹ s⁻¹

B7: XENP32940 (bispecific antibody)
heavy: B3 Fab-Fc heavy chain (anti-MSLN VH) with M50W, R98I
scFv-Fc: not shown
light: B3 light chain (anti-MSLN VL) with Y94F
notes: VH M50W, VL Y100F as printed; also called MESO-C H1.3_L1.14; copies: 1 + 1 + 1
Kd (human MSLN antigen [2]): 246 nM
Response (human MSLN antigen [2]): 0.136
koff (human MSLN antigen [2]): 0.0816 s⁻¹
kon (human MSLN antigen [2]): 332000 M⁻¹ s⁻¹

— patent US20240279356A1 (Xencor, published 2024)
